Laboratory results taken from patent publication US20220267427A1 (SYSMEX, published 2022).
Where no end group is shown, it is not given here. The star is where a group is joined. Biotin = O=C1N[C@H]2[C@H](CS[C@H]2CCCCC(=O)*)N1

How the values were obtained:
Peptide 25 = biological target: T1, Peptide 25 (human); experiment: solid phase ELISA; biotinylated peptide on plate, antibody 2 ug/ml
T1 peptide: Biotin-VKLEAEIATYRRLLEDGE
Procedure: (§1) (1) The peptides shown in Table 2 were synthesized, and biotin was added to the N-terminal side. (2) The synthesized peptides were dissolved in 80% DMSO solution and further diluted to 1 μg/ml with PBST. (3) After washing an ELISA plate three times with PBST, a biotinylated peptide was added thereto at 100 μL/well, and the plate was allowed to stand at room temperature for 1 hour to immobilize the peptide. Thereafter, the plate was washed three times with PBST, and Buffer I′ (10 mM NaH₂PO₄.2H₂O, 149.7 mM NaCl, 2.5 mM EDTA 2Na, 0.10% BSA, pH 7.0) was added thereto at 200 μL/well to prepare a plate stored at 4° C. overnight. (4) The plate was washed three times with PBST, and an antibody diluted to 2 μg/ml was added thereto at 50 μL/well, followed by shaking at room temperature for 1 hour. (5) The plate was washed three times with PBST, and an Anti-Mouse IgG POD antibody diluted about 5000 fold with Buffer I′ (10 mM NaH₂PO₄.2H₂O, 149.7 mM NaCl, 2.5 mM EDTA 2Na, 0.10% BSA, pH 7.0) was added thereto at 50 μL/well, followed by shaking at room temperature for 1 hour. (6) The plate was washed three times with PBST, TMB Mix (1-step Ultra TMB-ELISA (Thermo Scientific):3% H₂O₂: Phosphate-Citrate buffer (Sigma)=15:0.15:14.85) was added thereto at 100 μL/well, and the mixture was reacted at room temperature for 10 minutes. Thereafter, 1 M H₂SO₄ was added thereto at 100 μL/well to stop the reaction. (7) Absorbance of the reaction solution at 450 nm was measured with a plate reader.

Peptide 26 = biological target: T2, Peptide 26 (human); experiment: as above
T2 peptide: Biotin-IATYRRLLEDGEDFNLGD
Procedure: as §1

Peptide 27 = biological target: T3, Peptide 27 (human); experiment: as above
T3 peptide: Biotin-LLEDGEDFNLGDALD
Procedure: as §1

[1] = biological target: T4, fCK18 in apoptosis-induced HepG2 cell culture supernatant (human, UniProt P05783 239-397); experiment: HISCL sandwich immunoassay; K18-624 magnetic microbeads capture, K18-328Fab-ALP detector; fCK18 0.09 ng/mL
T4 construct: Natural CK18 fragment from the culture supernatant of apoptosis-induced HepG2 cells (band around 18 KDa); also called fCK18 in apoptosis-inducing cells
T4 sequence: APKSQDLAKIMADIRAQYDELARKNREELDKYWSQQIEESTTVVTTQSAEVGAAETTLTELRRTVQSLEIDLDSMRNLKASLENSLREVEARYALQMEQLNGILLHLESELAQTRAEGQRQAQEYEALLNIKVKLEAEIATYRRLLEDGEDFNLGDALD

[2] = biological target: T4, fCK18 in apoptosis-induced HepG2 cell …; experiment: HISCL sandwich immunoassay; K18-624 magnetic microbeads capture, K18-328Fab-ALP detector; fCK18 60.73 ng/mL
Peptide 3 = biological target: T5, Peptide 3 (human); experiment: solid phase ELISA; biotinylated peptide on plate, antibody 2 ug/ml
T5 peptide: Biotin-APKSQDLAKIMADIRAQY
Procedure: as §1

Peptide 4 = biological target: T6, Peptide 4 (human); experiment: as above
T6 peptide: Biotin-LAKIMADIRAQYDELARK
Procedure: as §1

Peptide 5 = biological target: T7, Peptide 5 (human); experiment: as above
T7 peptide: Biotin-DIRAQYDELARKNREELD
Procedure: as §1

Peptide 6 = Peptide 6 (human, biotin added to the N-terminal side); experiment: as above
Procedure: as §1

Peptide 7 = biological target: T8, Peptide 7 (human); experiment: as above
T8 peptide: Biotin-NREELDKYWSQQIEESTT
Procedure: as §1

Peptide 8 = Peptide 8 (human, biotin added to the N-terminal side); experiment: as above
Procedure: as §1

Peptide 9 = biological target: T9, Peptide 9 (human); experiment: as above
T9 peptide: Biotin-IEESTTVVTTQSAEVGAA
Procedure: as §1

Peptide 10 = biological target: T10, Peptide 10 (human); experiment: as above
T10 peptide: Biotin-VVTTQSAEVGAAETTLTE
Procedure: as §1

Peptide 11 = biological target: T11, Peptide 11 (human); experiment: as above
T11 peptide: Biotin-AEVGAAETTLTELRRTVQ
Procedure: as §1

Peptide 12 = biological target: T12, Peptide 12 (human); experiment: as above
T12 peptide: Biotin-ETTLTELRRTVQSLEIDL
Procedure: as §1

Peptide 13 = biological target: T13, Peptide 13 (human); experiment: as above
T13 peptide: Biotin-LRRTVQSLEIDLDSMRNL
Procedure: as §1

Peptide 14 = biological target: T14, Peptide 14 (human); experiment: as above
T14 peptide: Biotin-SLEIDLDSMRNLKASLEN
Procedure: as §1

Peptide 15 = biological target: T15, Peptide 15 (human); experiment: as above
T15 peptide: Biotin-DSMRNLKASLENSLREVE
Procedure: as §1

Peptide 16 = biological target: T16, Peptide 16 (human); experiment: as above
T16 peptide: Biotin-KASLENSLREVEARYALQ
Procedure: as §1

Peptide 17 = biological target: T17, Peptide 17 (human); experiment: as above
T17 peptide: Biotin-SLREVEARYALQMEQLNG
Procedure: as §1

Peptide 18 = biological target: T18, Peptide 18 (human); experiment: as above
T18 peptide: Biotin-ARYALQMEQLNGILLHLE
Procedure: as §1

B1: K18-624 antibody (antibody, V domains shown)
VH: DVQLVESGGGLVQPGGSRKLSCAASGFTFSSFGMHWVRQAPEKGLEWVAYISSGSTTIYYADTVKGRFTISRDNPKNTLFLQMTSLRSEDTAMYYCARRGMITTGAWFAYWGQGTLVTVSA
VL: DILLTQSPAILSVSPGERVSFSCRASQRIGTSIHWYQQRTNGSPRLLIKYASESISGIPSRFSGSGSGTDFTLSINSVESEDIADYYCQQSYIWPFTFGSGTKLEIK
notes: Mouse monoclonal antibody from a hybridoma (Balb/C mouse immunised with Peptide 1-KLH)
Abs450 (Peptide 25): 0.14
Abs450 (Peptide 26): 0.14
Abs450 (Peptide 27): 2.34
S/N ratio [1]: 1.9
S/N ratio [2]: 683

B2: K18-328 antibody (antibody, V domains shown)
VH: QVHLQQSAAELARPGASVKMSCKASGYTFTNYTIHWIKQRPGQGLEWIGYINPSSGYTDYNQNFKDKTTLTADKSSTTVYMQLSSLTSEDSAVYYCARQIPFAYWGQGTLVTVSA
VL: not shown
notes: Mouse monoclonal antibody from a hybridoma (immunogen full length rCK18)
Abs450 (Peptide 3): 0.04
Abs450 (Peptide 4): 0.01
Abs450 (Peptide 5): -0.01
Abs450 (Peptide 6): 0.01
Abs450 (Peptide 7): 0
Abs450 (Peptide 8): -0.01
Abs450 (Peptide 9): -0.01
Abs450 (Peptide 10): 0
Abs450 (Peptide 11): 0.01
Abs450 (Peptide 12): 0
Abs450 (Peptide 13): 0.01
Abs450 (Peptide 14): -0.01
Abs450 (Peptide 15): 0
Abs450 (Peptide 16): 0.04
Abs450 (Peptide 17): 1.55
Abs450 (Peptide 18): 0.02
